# Results as given in patent US20120028347A1 (TOKAI UNIVERSITY EDUCATIONAL SYSTEM, published 2012).
# B1: HO538-213 (Fab, V domains shown)
# VH: QVQLVQSGGGVVQPGRSLRLSCAASGFTFSSYGMHWVRQAPGKGLEWVAVVCYDGRTTYYADSVKGRFTISRDISENTLYLQMNSLRAEDTAVYYCAKDLNKGYCNNGGCYGVDCWGQGTLVTVSS
# VL: EIVMTQSPATLSLSPGERATLSCRASQSVNNYLAWYQQRPGQAPSLLIYDASNRATGIPARFSGSGSGTDFTLTISSLEPEDFAVYYCQQRGNWPHTFGQGTKLEIKR
# notes: Human IgM Fab (mu Fd and kappa light chain) expressed in E. coli JM109 from the vector pFab1-His2 and purified on an anti-Fab column; No sentence says it outright
# Columns and labels:
# [1] = target: T1, baculovirus-derived recombinant human CD4 (rhCD4) (human, UniProt P01730 26-396, limits assumed); assay: ELISA, purified Fab on coated rhCD4 (50 ng/well); amount of antibody at OD650 of about 0.7 to 0.8, where 50% of the maximum binding was observed
# T1 construct: Bought reagent, coated on ELISA plates at 50 ng/well
# Description: Thereafter, the wells were washed with PBS-T (PBS-0.05% Tween) once. Then, 300 μL of PBS-T-SM (PBS-T-1% skim milk) was added thereto, so as to block it at room temperature for 1 hour. Subsequently, the PBS-T-SM was removed, 50 μL of an antibody sample diluted with PBS-T-SM was then added thereto, and the mixture was then left at room temperature for 1 hour. Thereafter, the sample was removed, and the residue was then washed with PBS-T three times. A PO-bound anti-human IgG-Fab antibody was diluted with PBS-T at a ratio of 1:2000, and 50 μL of the thus diluted solution was then added to the wells. The obtained mixture was left at room temperature for 1 hour. Thereafter, the secondary antibody was removed, and the residue was then washed with PBS-T three times. 50 μL of a TMB reagent was added to the resultant, so as to develop color. The color was measured at OD of 650 nm.
# (§1) The percentage of peripheral B cells producing human CD4-reactive antibodies in total peripheral B cells was assumed to be approximately 0.0013%. The binding of the IgM Fab of each of the purified three clones to rhCD4 was examined by ELISA (FIG. 2).
# [2] = target: T1, baculovirus-derived recombinant human …; assay: ELISA, purified Fab on coated rhCD4
# Description: The rhCD4 was dissolved in a 50 mM carbonate buffer (pH 9.6) solution to a concentration of 2 μg/mL, and the thus prepared solution was dispensed in an amount of 50 μL each into the wells on an ELISA plate, and it was then left at 4° C. overnight. Thereafter, the wells were washed with PBS-T (PBS-0.05% Tween) once. Then, 300 μL of PBS-T-SM (PBS-T-1% skim milk) was added thereto, so as to block it at room temperature for 1 hour. Subsequently, the PBS-T-SM was removed, 50 μL of an antibody sample diluted with PBS-T-SM was then added thereto, and the mixture was then left at room temperature for 1 hour. Thereafter, the sample was removed, and the residue was then washed with PBS-T three times. A PO-bound anti-human IgG-Fab antibody was diluted with PBS-T at a ratio of 1:2000, and 50 μL of the thus diluted solution was then added to the wells. The obtained mixture was left at room temperature for 1 hour. Thereafter, the secondary antibody was removed, and the residue was then washed with PBS-T three times. 50 μL of a TMB reagent was added to the resultant, so as to develop color. The color was measured at OD of 650 nm.
# as §1
binder,measurement,setting,value
B1,EC50,[1],~8 µg/mL
same,affinity relative to the other clones (HO702-001 and HO702-016),[2],0.125 fold
